Results taken from patent US6855515B1, “Autoantigenic fragments, methods and assays” (Merck & Co., Inc., priority 1998, dated 2005).
pKi: −log10 of the molar value.

Experiments:
[1] = test system: endogenous DNA-PKcs, NuMA and PARP in HeLa cell lysates; assay: Cleavage of endogenous substrates in HeLa lysates after adding purified granzyme B, with caspase inhibitors; assay type: biochemical; details: for cleavage of PARP: inhibitor added 15 minutes prior to 12.5 nM granzyme B, 100 nM Ac-DEVD-CHO or 2 mM iodoacetamide
Description: (§1) Control HeLa lysates were prepared using methods commonly applied in the art, as described in Casciola-Rosen et al., 1994. […] The mixtures were incubated for 15 mn on ice to facilitate binding of the inhibitors to proteases prior to performing cleavage reactions at 37° C. for 60 min. After electrophoresing the samples on 10% SDS-polyacrylamide gels containing 0.087% bisacrylamide, the intact proteins and their cleaved fragments were visualized by immunoblotting.

[2] = molecular target: caspase-8 (Homo sapiens, UniProt Q14790); assay: Cleavage of substrates by purified caspase-8; assay type: biochemical; details: 50 nM purified caspase-8; HeLa lysates treated with iodoacetamide, or radiolabeled IvTT substrate
Chain of caspase-8 (Q14790 217-374 limits assumed, species assumed): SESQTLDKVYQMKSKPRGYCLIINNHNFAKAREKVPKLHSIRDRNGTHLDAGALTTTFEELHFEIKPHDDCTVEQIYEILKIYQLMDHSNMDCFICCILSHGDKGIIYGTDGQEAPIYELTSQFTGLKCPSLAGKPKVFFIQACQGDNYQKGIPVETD
Chain of caspase-8 (Q14790 385-479 limits assumed, species assumed): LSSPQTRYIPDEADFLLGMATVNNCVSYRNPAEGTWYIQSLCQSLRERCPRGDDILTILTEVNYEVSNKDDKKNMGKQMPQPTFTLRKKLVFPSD
Description: To confirm that these substrates were not cleaved by group III caspases, the substrates were incubated with 50 nM purified caspase-8. Cleavage assays were performed in HeLa cell lysates in which endogenous caspases had first been irreversibly inactivated by 1 mM iodoacetamide (4° C. for 15 min), prior to addition of 5 mM DTT to facilitate exogenous caspase-8 activity. No cleavage of topoisomerase-1, Mi-2, U1-70 kDa, PARP, Ku-70, RNA polymerase II large subunit, SRP-72, NuMA or Ki-67 occurred. Caspase-8 was indeed active in these lysates, as evidenced by robust caspase-3 cleavage products of PARP and U1-70 kDa seen when the IAA ‘poisoning’ step was omitted. Radiolabeled PMS1 and PMS2 (generated by IvTT) were also not cleaved by purified caspase-8.

[3] = molecular target: T1, granzyme B (Homo sapiens, UniProt P10144); assay: Susceptibility of autoantigens to cleavage by purified granzyme B (HeLa lysate immunoblot or immunoprecipitates); assay type: biochemical; details: in vitro
T1 construct: Some of these preparations were used for the further purification of granzyme B (Tschopp, 1994); endogenous in cells; host or cells: YT cells (human NK cell line), cytoplasmic granules
T1 sequence (P10144 21-247): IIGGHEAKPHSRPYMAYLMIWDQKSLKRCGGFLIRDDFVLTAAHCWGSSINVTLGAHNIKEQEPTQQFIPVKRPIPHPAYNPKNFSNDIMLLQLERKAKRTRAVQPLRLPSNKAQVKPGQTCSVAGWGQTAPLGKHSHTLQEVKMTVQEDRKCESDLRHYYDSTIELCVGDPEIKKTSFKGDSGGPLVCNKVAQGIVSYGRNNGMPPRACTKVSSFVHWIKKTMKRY
Description: To determine whether susceptibility to direct cleavage by granzyme B was an isolated feature of PARP, NuMA and DNA-PKcs shown above, or whether it was a more general feature of autoantigens, a variety of well-defined autoantigens selected from across the spectrum of systemic autoimmune diseases were tested for susceptibility to cleavage by purified granzyume B. The efficiency of cleavage of the substrates by purified granzyme B was also noted (Table 3). Initially, a series of autoantibodies of well-defined specificity were used to immunoblot lysates of HeLa cells that had been incubated in vitro with or without granzyme B. Lysates were pre-treated with iodoacetamide (IAA) to prevent interference by endogenous caspase activity.
To perform these studies, HeLa cells were radiolabeled with [^35S] methionine/cysteine, and proteins were immunoprecipitated using human autoantibodies. Protein A-agarose beads containing washed precipitated proteins were resuspended in buffer supporting the activity of granzyme B, and incubated in the absence or presence of added purified granzyme B. Reaction products were visualized using SDS-PAGE and fluorography. To confirm the validity of this approach, several different autoantigens known to be cleaved by granzyme B, as well as several autoantigens and non-autoantigens that are not cleaved by granzyme B, were tested. Using autoantibodies that both immunoblot and immunprecipitate, the cleavage profiles obtained using granzyme B to cleave molecules in lysates (followed by detection with immunoblotting), and after immunoprecipitation (from [^35S]methionine-labeled HeLa lysate) were compared. Identical results were obtained using these 2 methods for cleaved autoantigens (topoisomerase-1, Mi-2, RNA polymerase II large subunit, Ku-70, PARP, and NOR-90), uncleaved autoantigens (Ku-80, Ro 60k), and control substrates (β-tubulin, vinculin). […] Of note, all these additional autoantigens (with the exception of RNA polymerase I) are targeted in autoimmune myositis. However, two other tRNA synthetases (threonyl tRNA synthetase and glycyl tRNA synthetase) that are also autoantigens in autoimmune myositis, were not cleaved using this approach.

[4] = test system: K562 erythroleukemia cells; assay: Substrate cleavage in Fas-negative K562 target cells attacked by LAK cells; assay type: cell-based
Description: LAK cells were obtained by culturing human PBMCs for 4 days in LAK medium (RPMI supplemented with 10 mM Hepes pH 7.4, L-glutamine, 2% autologous plasma), and 1000 Cetus units/ml of hrIL-2 (Chiron Therapeutics, Emeryville, Calif.) (Topalian et al., 1989). […] After 2 washes with PD, cells were lysed and boiled in SDS sample buffer, and PARP, DNA-PKcs and NuMA were assayed by immunoblotting as described above.

[5] = test system: HeLa cells; assay: Confocal immunofluorescence of morphologic changes in HeLa cells exposed to YT cell granule contents; assay type: cell-based; details: 100 μM Ac-DEVD-CHO
Description: Morphologic experiments were performed on HeLa cells grown on No. 1 glass coverslips. […] 25 μl of HBSS containing 2 mM CaCl2 was then added to each coverslip (mixed well by repeated, gentle aspiration), followed by incubation in a humidified chamber at 37° C. for 60 min. […] Coverslips were mounted on glass slides with Permafluor (Lipshaw, Pittsburgh, Pa.), and confocal microscopy was performed on a scanning confocal microscopy system (LSM 410, Carl Zeiss, Inc., Thornwood, N.J.).

[6] = test system: K562 cells; assay: Substrate cleavage in intact K562 cells during YT cell granule content-induced cytotoxicity; assay type: cell-based; details: 100 μM Ac-DEVD-CHO
Description: Intact cytoplasmic granules were purified from YT cells, and the granule contents were isolated using known methods (Tschopp, 1994). Some of these preparations were used for the further purification of granzyme B (Tschopp, 1994). Purity of the protease was confirmed by silver staining of overloaded SDS-polyacrylamide gels. The cytotoxic effects of YT granule contents were determined as follows: Jurkat T cells or K562 cells were radiolabeled with 100 μCi/ml [^51Cr] sodium chromate, washed, resuspended in Ca^2+-free HBSS, and then incubated with granule contents (0-5 μl) and 1 mM CaCl2 for increasing times. The percentage specific [^51Cr] was calculated using the following formula: % specific lysis=[(sample cpm−spontaneous cpm)/(maximum cpm−spontaneous cpm)]×100. […] Aliquots containing 3.4×10^5 cells were incubated for a further 90 min at 37° C. with 1 mM EDTA or 1 mM Ca^2+ and 2 μl of YT granule contents (which induces 20-40% specific chromium release in 60 min, and characteristic internucleosomal DNA degradation. The total reaction volume of each sample was 30 μl. The reactions were terminated by boiling in SDS gel buffer and samples were electrophoresed and immunoblotted as described above. Experiments were performed using 2 different preparations of granule contents and 4 different cell types (K562, Jurkat, HeLa, primary human myoblasts).

[7] = molecular target: T2, caspase-7 (Homo sapiens, UniProt P55210); details: cited from earlier work
T2 sequence (P55210 24-198 limits assumed): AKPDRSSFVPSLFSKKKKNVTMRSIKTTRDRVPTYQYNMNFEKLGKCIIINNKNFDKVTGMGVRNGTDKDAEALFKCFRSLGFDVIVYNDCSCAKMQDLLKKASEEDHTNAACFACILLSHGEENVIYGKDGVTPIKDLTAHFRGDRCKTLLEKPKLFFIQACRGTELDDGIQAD
T2 sequence (P55210 207-303 limits assumed): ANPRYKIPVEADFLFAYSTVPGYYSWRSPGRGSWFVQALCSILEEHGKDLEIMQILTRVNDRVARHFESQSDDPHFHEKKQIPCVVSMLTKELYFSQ

[8] = molecular target: T3, caspase-3 (Homo sapiens, UniProt P42574); assay: Cleavage of endogenous substrates in HeLa lysates by added purified caspase-3, with inhibitors; assay type: biochemical; details: 100 nM inhibitor, HeLa lysate, 105 pM caspase-3, 37° C. 60 min
T3 construct: made in house
T3 sequence (P42574 29-175 limits assumed): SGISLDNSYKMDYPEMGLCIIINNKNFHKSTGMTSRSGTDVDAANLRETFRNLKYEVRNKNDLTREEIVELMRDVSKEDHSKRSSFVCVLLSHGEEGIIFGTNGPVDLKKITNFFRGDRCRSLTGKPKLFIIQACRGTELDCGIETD
T3 sequence (P42574 176-277 limits assumed): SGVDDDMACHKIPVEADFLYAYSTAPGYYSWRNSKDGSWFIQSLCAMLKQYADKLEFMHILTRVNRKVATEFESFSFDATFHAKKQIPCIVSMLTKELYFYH
Description: as §1

[9] = molecular target: T3, caspase-3; details: cited from earlier work
[10] = molecular target: T4, caspase-10 (Homo sapiens, UniProt Q92851); details: cited from earlier work
T4 sequence (Q92851 220-415 limits assumed): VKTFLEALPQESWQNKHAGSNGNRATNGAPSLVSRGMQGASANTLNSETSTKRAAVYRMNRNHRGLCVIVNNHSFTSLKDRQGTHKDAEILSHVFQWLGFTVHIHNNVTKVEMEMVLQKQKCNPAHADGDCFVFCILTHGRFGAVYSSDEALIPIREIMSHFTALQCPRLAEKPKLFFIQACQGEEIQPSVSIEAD
T4 sequence (Q92851 416-521 limits assumed): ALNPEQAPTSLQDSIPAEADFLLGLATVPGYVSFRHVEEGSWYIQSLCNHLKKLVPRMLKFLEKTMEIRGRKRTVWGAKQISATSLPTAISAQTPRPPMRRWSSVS

[11] = molecular target: T5, caspase-1 (Homo sapiens, UniProt P29466); details: cited from earlier work
T5 sequence (P29466 120-297 limits assumed): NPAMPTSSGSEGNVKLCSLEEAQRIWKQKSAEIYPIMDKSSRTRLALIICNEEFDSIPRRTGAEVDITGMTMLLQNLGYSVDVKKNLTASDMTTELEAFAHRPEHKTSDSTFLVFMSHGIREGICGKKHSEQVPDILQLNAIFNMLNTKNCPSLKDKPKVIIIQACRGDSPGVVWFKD
T5 sequence (P29466 317-404 limits assumed): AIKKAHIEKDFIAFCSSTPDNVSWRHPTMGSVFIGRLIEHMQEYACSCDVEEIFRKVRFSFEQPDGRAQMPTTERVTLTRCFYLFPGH

[12] = 100 μM Ac-DEVD-CHO, LAK:K562 5:1

## NC(=O)CI [iodoacetamide]
[1]
  cleavage of PARP: almost entirely abolished

## Topoisomerase I: autoantigen
[2]
  cleavage by caspase-8: No cleavage
[3]; listed as topoisomerase-1
  susceptibility to cleavage by granzyme B: efficiently cleaved

## N-(N-Ac-Asp-Glu-Val)-3-amino-4-oxobutanoic acid [Ac-DEVD-CHO]
[4]; [12]
  100 kDa granzyme B-specific fragment of DNA-PKcs: insensitive
  inhibition of generation of caspase-3-specific fragments of DNA-PKcs: > 90%
[4]; 100 μM Ac-DEVD-CHO, LAK:K562 5:1, 4 h
  PARP cleavage: entirely abolished
[4]; intact cell killing by LAK cells, Ac-DEVD-CHO added
  cleavage of PMS1: unaffected
[5]
  granule content-induced surface blebbing, nuclear fragmentation, apoptotic bodies, redistribution of nuclear autoantigens: prevented
[6]; YT granule contents
  generation of 150 kDa and 120 kDa DNA-PKcs fragments: entirely inhibited
[6]; YT granule contents plus Ca2+
  generation of the 89 kDa PARP fragment: completely inhibited
  production of granzyme B-specific cleavage fragments of DNA-PKcs and NuMA: not inhibited
[1]
  cleavage of PARP: almost entirely abolished
[1]; inhibitor added prior to granzyme B
  generation of caspase-3-specific fragments of NuMA (185 kDa) and DNA-PKcs (150 kDa C-terminal): abolished

## N-(N-Ac-Tyr-Val-Ala)-3-amino-4-oxobutanoic acid [Ac-YVAD-CHO]
[7]
  pKi: < 5.00
[8]
  substrate fragments generated by the activity of caspase-3: unaffected
[9]
  pKi: < 5.00
[10]
  pKi: 6.39
[11]
  pKi: 9.22

## Ro52 kDa: ribonucleoprotein autoantigen
[3]
  susceptibility to cleavage by granzyme B: not susceptible to cleavage

## Ro 60k: ribonucleoprotein autoantigen
[3]
  susceptibility to cleavage by granzyme B: uncleaved
[3]; listed as Ro 60 kDa
  susceptibility to cleavage by granzyme B: not susceptible to cleavage

## KI-67: autoantigen
[2]
  cleavage by caspase-8: No cleavage
[3]
  susceptibility to cleavage by granzyme B: cleaved

## poly(ADP-ribose)polymerase [PARP]
[2]
  cleavage by caspase-8: No cleavage
[3]
  susceptibility to cleavage by granzyme B: efficiently cleaved

## PMS2: autoantigen
[2]
  cleavage by caspase-8: not cleaved
[3]
  susceptibility to cleavage by granzyme B: cleaved

## Ku-70: autoantigen
[2]
  cleavage by caspase-8: No cleavage
[3]
  susceptibility to cleavage by granzyme B: efficiently cleaved

## vinculin: control substrate, non-autoantigen [reference compound]
[3]
  susceptibility to cleavage by granzyme B: not cleaved

## U1-70 kDa: autoantigen cleaved by caspases during apoptosis
[2]
  cleavage by caspase-8: No cleavage
[3]
  susceptibility to cleavage by granzyme B: efficiently cleaved

## RNA polymerase I: autoantigen
[3]
  susceptibility to cleavage by granzyme B: cleaved

## nuclear mitotic apparatus protein [NuMA]
[2]
  cleavage by caspase-8: No cleavage

## Ku-80: uncleaved autoantigen
[3]
  susceptibility to cleavage by granzyme B: uncleaved
